Measurements reported in PMC11063326, “2-oxoglutarate-dependent dioxygenases and BAHD acyltransferases drive the structural diversification of orobanchol in Fabaceae plants” (Frontiers in Plant Science, 2024).

Substrate: CC1=C[C@H](O/C=C2/C(=O)O[C@@H]3[C@H]2[C@@H](O)[C@]24CCCC(C)(C)[C@]32O4)OC1=O
Test: product formation (fabacyl acetate) by LC-MS/MS, crude recombinant enzyme
Format: biochemical, Lathyrus oleraceus
Details: 200 μM acetyl-CoA, 50 mM citrate pH 6.0, 30°C
Text: product formation (fabacyl acetate) by LC-MS/MS, crude recombinant enzyme on PsFAT (fabacol acetyltransferase, Psat7g079960)

B1: PsFAT (fabacol acetyltransferase, Psat7g079960) (Lathyrus oleraceus) (protein)
chain: MEMEIISREFIKPSSPTPPHLRNFPISFIDHITFRYYVPLLFFYNDTKVSDQKSKISHLKSSLSQILSIYYPFAGRFKDQRSIECNDQGVLFLVANITGIKLSTILENPDEKLFDHLFPDQLQWKLMEWNESILVVQINCFACGGIVISVCTCHKIIDATTAFNFVNDWSKLNREQESESKSTSASLLPYNLLYAGDTIFSLGNLPKFPEVDFAIDKTIVCKRFVFEASKIKLLKNLVNFNSHVVENPTRVEVITALIYKCVVSTLGLNFKTTSLQIAVNLRKRMIPPLSNKCVGNLVWILFVMNPELHDLVFRIRQGLSEFCEVYPKKFGGKEKDSSFICECLKQVTTRVSESDNNQSLIAYASWCKFPMYEADFGWGKPIWVTTSACPARNAVILMDTRDGDGIEVIVSMKKNDMVRFECDVELLQYASVNPSITS
notes: complete CDS from root cDNA, modified pCold III, E. coli BL21(DE3) with GroES/GroEL; crude E. coli extract
Km: 0.287 ± 0.076 µM
Vmax: 0.00745 µM/min
